{"source": "patent US20140314775A1", "target": "human recombinant adrenomedullin receptor (CRLR+RAMP3) (Homo sapiens)"}
{"substance": "human Adrenomedullin (hADM 1-52) (peptide)", "values": [{"measurement": "EC50 (read off the curve)", "result": 1, "unit": "nM"}]}
